Test results from paper PMC10801922 (Proceedings of the National Academy of Sciences of the …, 2024).

Key:
[1] = biological target: SARS-CoV-2 Delta (B.1.617.2) receptor-binding domain (SARS-CoV-2 Delta (B.1.617.2), strain)
[2] = biological target: T1, SARS-CoV-2 G614 (wild-type) receptor-binding domain (SARS-CoV-2, UniProt P0DTC2)
[3] = biological target: SARS-CoV-2 Alpha (B.1.1.7) receptor-binding domain (SARS-CoV-2 Alpha (B.1.1.7), strain)
[4] = biological target: T1, SARS-CoV-2 G614 (wild-type) …; assay: ELISA; conditions: both partners purified

B1: 01A05 (antibody, V domains shown)
VH: QVQLVQSGAEVKKPGASVKVSCKASGYTFTSYGISWVRQAPGQGLEWMGWISADNGNTNYAQKLQGRVTMTTDTSTSTAYMELRSLRSDDTAVYYCARVPMFVVPNCSGGGCYRRAWEAGLDVWGQGTTVTVSS
VL: DIQMTQSPSSLSASVGDRVTITCRASQSISNYLNWYQQRPGRAPKLLIYTTSNLQSGVPSRFSGSGSGTDFTLTISSLQPEDFATYFCQQSFTGTFGGGTKVEIK
Q: What does the source list for B1?
A: binding result [1]: binds; Kd [2]: 2.5 nM; binding result [3]: binds

B2: rmAb23 (antibody, V domains shown)
VH: EVQLVESGGGLIQPGGSLRLSCAASGFTVSSNYMSWVRQAPGKGLEWVAVIYSGGSTDYADSVKGRFTISRDNSKNTLHLQMNSLRAEDTAVYYCARDLVVYGMDVWGQGTTVTVSS
VL: DIQLTQSPSFLSASVGDRVTITCRASQGISSYLAWYQQKPGKAPKLLIYAASTLQSGVPSRFSGSGSGTEFTLTISSLQPEDFATYYCQQLNSYPLTFGPGTKVDIK
Q: What does the source list for B2?
A: binding result [1]: binds; Kd [2]: 6.5 nM; binding result [3]: binds

B3: XG014 IgG (antibody, V domains shown)
VH: EVQLVQSGAEVKKPGESLKISCKGSGYSFSNYWIGWVRHMPGKGLEWMGIIYPGDSDTRYSPSFQGQVTISVDTSISTAYLQWSSLKASDTAMYYCTRHQYGYNYGYFYYYIDVWGKGTTVTVSS
VL: QSVLTQPPSVSAAPGQKVTISCSGSSSNIGNNPVSWYRQVPGTAPKLLIYDNNKRPSGIPDRFSGSKSGASATLGITGLQTGDEADYYCGTWHTSLSSGVFGGGTKLTVL
notes: also called parental IgG; source: recombinant
Q: Does B3 bind [4]?
A: Result: binds
